The source of these data is paper PMC4383175.

Test [1] addresses Native (dimeric) human haptoglobin-haemoglobin complex (Hp 1-1 with Hb) (human) (UniProt P00738). The test is described as follows: SEC-SAXS. (In general: Size exclusion chromatography separates by hydrodynamic size, large species first.)
The target is the same in test [2]. In words: SEC-MALS.
In test [3] the target is Trypanosoma brucei haptoglobin-haemoglobin receptor, truncated N-terminal ligand-binding domain (residues 36-299) (Trypanosoma brucei brucei) (UniProt Q581F2). The test is described as follows: SPR. (In SPR one partner is held on a chip, and binding of the other changes the refractive index at the surface.)

In the case of “Trypanosoma brucei haptoglobin-haemoglobin receptor, truncated N-terminal ligand-binding domain (residues 36-299) (from UniProt Q581F2 36-299)”, the stoichiometry N (receptors per HpHb) in test [1] and in test [2] was 2 in each case.

In test [3], “HpSPHb complex: serine protease domain of human haptoglobin (148-406) bound to a human haemoglobin alpha-beta dimer (from UniProt P00738 148-406)” registered a Kd of 0.7 µM.

Substance “HprSPHb complex: serine protease domain of human haptoglobin-related protein (90-348) bound to human haemoglobin (from UniProt P00739 90-348)” returned a Kd in test [3] of 1.7 µM.

As usually defined, the Kd is the free concentration of one partner at which half of the binding sites on the other are occupied at equilibrium, for simple one-to-one binding.
